Laboratory results from patent US20210277110A1 (Janssen / Centocor, published 2021).
Read-outs that look alike come from different tables or passages of the source. Blank lines part the entries; values can stand above or below the binder they belong to.

How the values were obtained:
[1] = biological target: T1, Extracellular domain of human PD1 (huPD1-ECD) (human, UniProt Q15116 25-169, biotinylated in the ligand inhibition assay (sites not given)); assay: SPR, human PD-1 affinity
T1 construct: Expressed with a hexahistidine tag or as Fc fusion; also called biotinylated PD-1

[2] = biological target: T2, Full length human PD1 (huPD1) on cells (human, UniProt Q15116 25-288); assay: flow cytometry, Jurkat cells
T2 construct: on T cells of human donors in the MLR and CMV assays (functional); also called PD-1 on Jurkat cells
Experimental: (§1) Jurkat cells were stimulated overnight with 20 ng/ml of PHA, harvested, washed, and checked for viability. The cells were then incubated at 6-10° C. for 45-60 minutes with various concentrations of test antibodies, washed and incubated at 6-10° C. for 45-60 minutes with FITC-labeled goat anti-human IgG. The cells were washed and fixed with BD Cytofix, refrigerated overnight and analyzed on a MACSQuant flow cytometer. The percentage of PD-1 positive cells at each antibody concentration was plotted vs log of the antibody concentration and EC₅₀ values were generated in Prism.

[3] = biological target: T1, Extracellular domain of human PD1 …; assay: MSD ligand inhibition, competitor coated huPDL1-ECD
Experimental: (§2) The ligand inhibition assay design was MSD (Mescoscale Discovery) based. A MSD plate was directly coated with ligand (cynoPDL1-ECD, huPDL1-ECD or huPDL2-ECD) and incubated overnight at 4° C. The following day, the coating solution was removed and the plate was blocked. […] Depending on the panel of antibodies to be tested, the antibodies were tested as titrations or at a fixed concentration.

[4] = biological target: T1, Extracellular domain of human PD1 …; assay: MSD ligand inhibition, competitor coated cynoPDL1-ECD
Experimental: as §2

[5] = biological target: T2, Full length human PD1 (huPD1) on cells; assay: cell-based or functional assay
[6] = biological target: T2, Full length human PD1 (huPD1) on cells; assay: flow cytometry, PHA-stimulated Jurkat cells
Experimental: as §1

[7] = biological target: T2, Full length human PD1 (huPD1) on cells; assay: flow cytometry, PHA-stimulated Jurkat cells; remark: listed apart in the source
Experimental: as §1

[8] = biological target: T1, Extracellular domain of human PD1 …; assay: SPR ProteOn, huPD1-ECD; RANGE low replicate
Experimental: (§3) Affinity measurements using Surface Plasmon Resonance (SPR) were performed using a ProteOn XPR36 system. A biosensor surface was prepared by coupling a mixture of anti-IgG Fc modified alginate polymer layer surface of a GLC chip using the manufacturer instructions for amine-coupling chemistry. […] The collected data were processed and fitted to a Langmuir 1:1 binding model. The result for each mAb was reported in the format of kₒₙ (On-rate), koff (Off-rate) and KD (equilibrium dissociation constant).
(§4) STDEV were calculated for 3 or more replicates generated for human and cyno proteins. If less than 3 replicates were calculated, RANGE is indicated. RANGE is defined as the low and high values for the replicates tested. For samples without RANGE or STDEV, only one experiment was performed

[9] = biological target: T1, Extracellular domain of human PD1 …; assay: SPR ProteOn, captured mAb, huPD1-ECD analyte
[10] = biological target: T1, Extracellular domain of human PD1 …; assay: SPR ProteOn, captured mAb, huPD1-ECD analyte; remark: listed apart in the source
Experimental: as §3, §4

[11] = biological target: T1, Extracellular domain of human PD1 …; assay: SPR ProteOn, huPD1-ECD; RANGE high replicate
Experimental: as §3, §4

[12] = biological target: T3, Extracellular domain of cyno PD1 (cPD1-ECD) (Macaca fascicularis (cynomolgus)); assay: SPR ProteOn, cynoPD1-ECD; RANGE low replicate
T3 construct: Expressed with a hexahistidine tag or as Fc fusion; also called cynoPD1-ECD; cynoPD-1-ECD
T3 chain: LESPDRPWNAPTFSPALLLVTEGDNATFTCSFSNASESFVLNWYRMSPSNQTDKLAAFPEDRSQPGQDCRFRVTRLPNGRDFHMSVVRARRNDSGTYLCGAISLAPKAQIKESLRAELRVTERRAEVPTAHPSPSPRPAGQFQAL
Experimental: as §3
(§5) STDEV were calculated for 3 or more replicates generated for human and cyno proteins. If less than 3 replicates were calculated, RANGE was indicated. RANGE is defined as the low and high values for the replicates tested. For samples in the Table 10 or Table 11 without value indicated in RANGE or STDEV, only one experiment was performed.

[13] = biological target: T3, Extracellular domain of cyno PD1 …; assay: SPR ProteOn, cynoPD1-ECD; RANGE low replicate
Experimental: as §3, §4

[14] = biological target: T3, Extracellular domain of cyno PD1 …; assay: SPR ProteOn, captured mAb, cynoPD1-ECD analyte
Experimental: as §3, §5

[15] = biological target: T3, Extracellular domain of cyno PD1 …; assay: SPR ProteOn, cynoPD1-ECD; RANGE high replicate
Experimental: as §3, §5

[16] = biological target: T3, Extracellular domain of cyno PD1 …; assay: SPR ProteOn, captured mAb, cynoPD1-ECD analyte
Experimental: as §3, §4

[17] = biological target: T3, Extracellular domain of cyno PD1 …; assay: SPR ProteOn, cynoPD1-ECD; RANGE high replicate
Experimental: as §3, §4

[18] = biological target: T1, Extracellular domain of human PD1 …; assay: MSD ligand inhibition, competitor coated huPDL1-ECD; remark: listed apart in the source
Experimental: as §2

[19] = biological target: T1, Extracellular domain of human PD1 …; assay: MSD ligand inhibition, competitor coated huPDL2-ECD
Experimental: as §2

[20] = biological target: T1, Extracellular domain of human PD1 …; assay: MSD ligand inhibition, competitor coated cynoPDL1-ECD; remark: listed apart in the source
Experimental: as §2

[21] = biological target: T1, Extracellular domain of human PD1 …; assay: as above; remark: listed apart in the source
Experimental: The ligand inhibition assay design was MSD (Mescoscale Discovery) based. A MSD plate was directly coated with ligand (cynoPDL1-ECD, huPDL1-ECD or huPDL2-ECD) and incubated overnight at 4° C. The following day, the coating solution was removed and the plate was blocked. […] Depending on the panel of antibodies to be tested, the antibodies were tested as titrations or at a fixed concentration. […] The mAbs that were positive for inhibition of ligand binding at one concentration were also tested in dose responses for inhibition of various PD-1 ligands.
Select Fabs were cloned as IgG2sigma isotype and characterized for their Jurkat cell binding and cynomolgus PD-L1 ligand inhibition at concentrations 1 μg/ml and 10 μg/ml.

[22] = biological target: T1, Extracellular domain of human PD1 …; assay: SPR ProteOn, huPD1-ECD; RANGE low replicate; RANGE low replicate
Experimental: as §3, §4

[23] = biological target: T1, Extracellular domain of human PD1 …; assay: SPR ProteOn, captured mAb; antigen species not given
[24] = biological target: T1, Extracellular domain of human PD1 …; assay: SPR ProteOn, huPD1-ECD; RANGE high replicate; RANGE high replicate
Experimental: as §3, §4

T2 sequence (Q15116 25-288 limits assumed): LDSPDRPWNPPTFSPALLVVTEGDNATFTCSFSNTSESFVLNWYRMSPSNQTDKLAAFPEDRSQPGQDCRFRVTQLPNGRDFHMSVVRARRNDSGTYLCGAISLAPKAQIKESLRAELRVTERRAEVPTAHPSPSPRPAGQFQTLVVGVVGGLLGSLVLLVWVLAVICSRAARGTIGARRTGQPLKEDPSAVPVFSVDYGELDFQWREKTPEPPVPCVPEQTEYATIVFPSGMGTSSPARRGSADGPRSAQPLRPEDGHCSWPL
T1 sequence (Q15116 25-169 limits assumed): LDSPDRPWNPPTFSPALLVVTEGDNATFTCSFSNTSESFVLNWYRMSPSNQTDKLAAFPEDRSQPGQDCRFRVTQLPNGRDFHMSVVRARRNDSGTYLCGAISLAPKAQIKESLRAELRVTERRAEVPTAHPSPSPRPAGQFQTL

Kd [1]: 0.127 nM | koff [1]: 0.000105 s⁻¹ | kon [1]: 827000 M⁻¹ s⁻¹ | Jurkat cell binding relative to PD1B28 [2]: 100% | IC50 [3]: 0.079 µg/mL | IC50 [4]: 0.096 µg/mL
B1: PD1B131 (antibody, V domains shown)
VH: EVQLVESGGGLVQPGGSLRLSCAASGFAFSRYDMSWIRLAPGKGLESVAYISGGGANTYYLDNVKGRFTISRDNAKNSLYLQMNSLRAEDTAVYYCASPYLSYFDVWGQGTLVTVSS
VL: EIVMTQSPATLSVSPGERATLSCRASQSLSDYLHWYQQKPGQAPRLLIKSASQSISGIPARFSGSGSGTEFTLTISSLQSEDFAVYYCQNGHSFPYTFGQGTKLEIK
notes: Humanized variant of PD1B28; also called PD1H130/PD1L62

CMV EC50, nM (IFN-γ induction) [5]: 0.07 nM | Kd [1]: 0.096 nM | koff [1]: 8.8e-05 s⁻¹ | kon [1]: 914000 M⁻¹ s⁻¹ | Jurkat cell binding relative to PD1B28 [2]: 100% | IC50 [3]: 0.055 µg/mL | IC50 [4]: 0.079 µg/mL
B2: PD1B132 (antibody, IgG2, V domains shown)
VH: EVQLVESGGGLVQPGGSLRLSCAASGFAFSRYDMSWVRQAPGKGLESVAYISGGGANTYYLDNVKGRFTISRDNAKNSLYLQMNSLRAEDTAVYYCASPYLSYFDVWGQGTLVTVSS
VL: EIVMTQSPATLSVSPGERATLSCRASQSLSDYLHWYQQKPGQAPRLLIKSASQSISGIPARFSGSGSGTEFTLTISSLQSEDFAVYYCQNGHSFPYTFGQGTKLEIK
notes: Humanized variant of PD1B28; also called PD1H129/PD1L62

EC50 [6]: 0.69 to 1.32 µg/mL | EC50 [7]: 0.69 µg/mL | koff [8]: 0.0341 s⁻¹ | kon [8]: 737000 M⁻¹ s⁻¹ | Kd [9]: 101 nM | koff [9]: 0.0418 s⁻¹ | kon [9]: 415000 M⁻¹ s⁻¹ | Kd [10]: 45.4 nM | koff [10]: 0.0349 s⁻¹ | kon [10]: 769000 M⁻¹ s⁻¹ | koff [11]: 0.0356 s⁻¹ | kon [11]: 800000 M⁻¹ s⁻¹ | Kd [12]: 109 nM | koff [12]: 0.0245 s⁻¹ | kon [12]: 199000 M⁻¹ s⁻¹ | Kd [13]: 79.6 nM | koff [13]: 0.0218 s⁻¹ | kon [13]: 225000 M⁻¹ s⁻¹ | Kd [14]: 123 nM | koff [14]: 0.0258 s⁻¹ | kon [14]: 210000 M⁻¹ s⁻¹ | Kd [15]: 138 nM | koff [15]: 0.0275 s⁻¹ | kon [15]: 225000 M⁻¹ s⁻¹ | Kd [16]: 89 nM | koff [16]: 0.0222 s⁻¹ | kon [16]: 250000 M⁻¹ s⁻¹ | Kd [17]: 100 nM | koff [17]: 0.0226 s⁻¹ | kon [17]: 274000 M⁻¹ s⁻¹ | IC50 [18]: 0.04 µg/mL | IC50 [19]: 0.059 µg/mL | IC50 [20]: 0.01 to 0.021 µg/mL | percentage ligand not blocked at 1 µg/ml [21]: 6% | percentage ligand not blocked at 10 µg/ml [21]: 6% | Kd [22]: 42.6 nM | Kd [23]: 166 nM | koff [23]: 0.0304 s⁻¹ | kon [23]: 184000 M⁻¹ s⁻¹ | Kd [24]: 48.3 nM
B3: PD1B70 (antibody, V domains shown)
VH: QVQLVQSGAEVKKPGSSVKVSCKASGGTFSSYAISWVRQAPGQGLEWMGGIIPIFGTANYAQKFQGRVTITADESTSTAYMELSSLRSEDTAVYYCARGYVRATGMLDYWGQGTLVTVSS
VL: EIVLTQSPATLSLSPGERATLSCRASQSVSSYLAWYQQKPGQAPRLLIYDASNRATGIPARFSGSGSGTDFTLTISSLEPEDFAVYYCQQRSNWPLTFGQGTKVEIK
notes: Tested as IgG2sigma/kappa; also called PD1H107/PH9L3
